B1: tRNA^Sep: amber suppressor tRNA derived from Mj tRNA^Cys with C20U change and two anticodon mutations; SEQ ID NO:41 (nucleic acid)
chain: GCCGGGGTAGTCTAGGGGTTAGGCAGCGGACTGCAGATCCGCCTTACGTGGGTTCAAATCCCACCCCCGGCT
modifications: expressed or natural sequence

What was measured:
E. coli Top10ΔserB = assay: CAT (UAG at position 112) suppression assay, chloramphenicol resistance; assay type: cell-based, Escherichia coli
Experimental: The suppressor tRNA^Sep was coexpressed with the indicated enzymes in E. coli Top10ΔserB. Selection was carried out on LB agar plates containing 2 mM Sep and various concentrations of chloramphenicol.
pCAT112TAG-SepT was created from pACYC 184. The gene encoding chloramphenicol acetyltransferae (CAT) was modified by quickchange mutagenesis to introduce an amber stop codon at position Asp112 (Wang L, et al. Science 292:498 (2001)). The resulting plasmid was PCR amplified using primers PBLAF (5′-TGCGCAATGCGGCCGCCCGTAGCGCCGATGGTAGTGT-3′, SEQ ID NO:9) and PBLAR (5′-ACACGGAGATCTCTAAAGTATATATGAGTAAAC-3′, SEQ ID NO: 10) and ligated with a PCR product containing a tRNA^Sep expression cassette from pSepT, created with primers TSEPF (5′-GCATGCGCCGCCAGCTGTTGCCCGTCTCGC-3′, SEQ ID NO:17) and TSEPR (5′-GCATAGATCTTCAGCTGGCGAAAGGGGGATG-3′, SEQ ID NO:18).
Efficient and selective addition of Sep to the E. coli genetic repertoire requires exclusive interaction of SepRS with tRNA^Sep for Sep-tRNA^Sep formation without interfering in the host translation system as well as a sufficient intracellular concentration of Sep. As E. coli has a Sep-compatible transporter (Wanner, B L. FEMS Microbiol Lett 79, 133 (1992)), Sep (2 mM) was added to the growth medium, and the endogenous serB gene encoding phosphoserine phosphatase was deleted in the E. coli test strain. To assess whether the Mj tRNA^Sep/Mmp SepRS pair is functional and orthogonal in E. coli, a suppression assay was performed that employed a chloramphenicol acetyltransferase (CAT) gene with a UAG stop codon at the permissive position 112 (wild-type amino acid: Asp) to produce chloramphenicol (Cm) acetyltransferase; then cell survival was measured in the presence of Sep and varying amounts of Cm. The different IC50 values (FIG. 2) relate to suppression efficiency (i.e., amount of CAT made dependent on the various transformed genes). When only tRNA^Sep is expressed (FIG. 2, second bar) Cm resistance increases about 3.3-fold over background (FIG. 2, first bar). Thus, tRNA^Sep can be aminoacylated to a certain degree by an unknown E. coli aminoacyl-tRNA synthetase (Gln is being incorporated at the amber stop codon). […] This may indicate that SepRS can out-compete any endogenous aminoacyl-tRNA synthetase and form Sep-tRNAS^Sep; however, this aminoacyl-tRNA is not delivered to the ribosome or not accommodated on the ribosome. […] Co-expression of tRNA^Sep, SepRS and SepCysS should result in formation of Sep-tRNA^Sep and subsequent SepCysS-mediated conversion to Cys-tRNA^Sep (A. Sauerwald et al., Science 307, 1969 (2005)). Indeed, a 2.3-fold increase in Cm resistance is observed (FIG. 2, sixth bar). This further supports the notion that while Sep-tRNA^Sep is synthesized, it cannot be used properly by the E. coli protein biosynthesis machinery.
Resulting pKD-SepRS-EFTu plasmids were transformed into E. coli Top10ΔserB containing pCAT112-SepT for a third round of selection which was carried out under the same conditions as the first. This time, individual colonies were isolated from agar plates and clones were tested for their ability to grow on Cm over a concentration range from […]. Total plasmid was purified from isolates showing strong Cm resistance, and pKD-SepRS-EFTu plasmids were subjected to sequencing. […]

[^14C]Sep-tRNA^Cys = EF-Tu hydrolysis protection assay with Sep-tRNA^Cys; assay type: binding, Methanocaldococcus jannaschii; settings: pH 8.2; 40 μM factor, 2 μM [^14C]Sep-tRNA^Cys, 25° C.; FIG. 3 and FIG. 5B
Experimental: Protection of Sep-tRNA^Cys by EF-Tu was assayed as described earlier with slight modifications (Ling J, et al. RNA. 2007 November; 13(11):1881-6.). Briefly, EF-Tu or EF-Sep (both purified as maltose binding protein fusion proteins) were activated for 20 min. at 37° C. in buffer containing 100 mM Tris-HCl (pH 8.2), 120 mM NH4Cl, 7 mM MgCl2, 5 mM DTT, 5 mM phosphoenolpyruvate, 1.5 mM GTP, and 0.12 μg/μl pyruvate kinase. Hydrolysis of 2 μM [^14C]Sep-tRNA^Cys was then monitored at 25° C. in the presence of 40 μM EF-Tu (wt), EF-Sep, or BSA, respectively. Aliquots were taken from the reaction mix at indicated time points and spotted on 3MM filter discs presoaked with 10% trichloroacetic acid. Filters were washed with 5% trichloroacetic acid, dried, and radioactivity was measured by liquid scintillation counting.
(§1) To assay hydrolysis protection of acylated tRNA^Cys by EF-Tu, […] tRNA^Cys in vitro transcripts acylated with [^14C]Sep or [^35S]Cys, respectively, were phenol/chlorophorm extracted, and the aqueous phase was passed over Sephadex® G25 Microspin columns (GE Healthcare) equilibrated with water. […] Hydrolysis of 2 μM [^14C]Sep-tRNA^Cys was then monitored at 25° C. in the presence of 40 μM EF-Tu (wt), EF-Sep, or BSA, respectively. […] Filters were washed with 5% trichloroacetic acid, dried, and radioactivity was measured by liquid scintillation counting.

[^35S]Cys-tRNA^Cys = EF-Tu hydrolysis protection assay with Cys-tRNA^Cys; assay type: binding, Methanocaldococcus jannaschii; settings: pH 8.2; FIG. 5A
Experimental: FIGS. 5A and 5B are graphs showing EF-Tu protects Cys-tRNA^Cys(FIG. 5A) but not Sep-tRNA^Cys (FIG. 5B) from deacylation. Hydrolysis of M. jannaschii [^35S]Cys-tRNA^Cys or [^14C]Sep-tRNA^Cys was determined at pH 8.2 and room temperature in the presence or absence of EF-Tu.
Given that EF-Tu is a component of quality control in protein synthesis (LaRiviere, FJ., et al. Science 294, 165 (2001)), it is highly plausible that Sep-tRNA^Sep may be rejected by EF-Tu in order not to interfere with the complicated cellular mechanism of phosphoprotein production. […] This assumption was tested in EF-Tu mediated Sep-tRNA hydrolysis protection experiments (J. Ling et al., Proc Natl Acad Sci USA 104, 15299 (2007)), and incubated recombinant E. coli EF-Tu with the Mj tRNA^Cys in vitro transcript either acylated with [^35S]Cys or [^14C]Sep at pH 8.2. […]
as §1

Mmp SepRS = assay: In vitro aminoacylation of tRNA with Sep by Mmp SepRS; assay type: biochemical, Methanococcus maripaludis
Experimental: In vitro transcript of Methanocaldococcus jannaschii tRNA^Cys was prepared and acylated with [^14C]Sep (55 mCi/mmol) using recombinant Methanococcus maripaludis SepRS as described previously by Hohn M J, et al. Proc Natl Acad Sci USA. 2006 Nov. 28; 103(48):18095-100. Sep-tRNA^Cys was phenol/chlorophorm extracted, and the aqueous phase was passed over Sephadex G25 Microspin columns (GE Healthcare) equilibrated with water.
Total tRNA from E. coli Top10 or from E. coli Top10 complemented with pCysT or pSepT, respectively, was purified by standard procedures and acylated with [^14C]Sep by M. maripaludis SepRS as described previously. […] M. jannaschii tRNA^Cys contains m^1G37 when isolated from M. jannaschii. Since the E. coli methylase TrmD is known to methylate G37 of archaeal tRNA^Pro, it is believed that the in vivo expressed tRNA^Sep also carries the m^1G37 modification. In vitro transcript of M. jannaschii tRNA^Cys was prepared and acylated with [^14C]Sep or [^35S]Cys using recombinant M. maripaludis SepRS or CysRS. M. jannaschii tRNA^Cys transcript was chosen for these experiments because of the poor folding properties of in vitro transcribed M. maripaludis tRNA^Cys (Hohn, M. J. Proc Natl Acad Sci USA 103, 18095 (2006)).

Mmp SepRS, sequence (as listed by the source): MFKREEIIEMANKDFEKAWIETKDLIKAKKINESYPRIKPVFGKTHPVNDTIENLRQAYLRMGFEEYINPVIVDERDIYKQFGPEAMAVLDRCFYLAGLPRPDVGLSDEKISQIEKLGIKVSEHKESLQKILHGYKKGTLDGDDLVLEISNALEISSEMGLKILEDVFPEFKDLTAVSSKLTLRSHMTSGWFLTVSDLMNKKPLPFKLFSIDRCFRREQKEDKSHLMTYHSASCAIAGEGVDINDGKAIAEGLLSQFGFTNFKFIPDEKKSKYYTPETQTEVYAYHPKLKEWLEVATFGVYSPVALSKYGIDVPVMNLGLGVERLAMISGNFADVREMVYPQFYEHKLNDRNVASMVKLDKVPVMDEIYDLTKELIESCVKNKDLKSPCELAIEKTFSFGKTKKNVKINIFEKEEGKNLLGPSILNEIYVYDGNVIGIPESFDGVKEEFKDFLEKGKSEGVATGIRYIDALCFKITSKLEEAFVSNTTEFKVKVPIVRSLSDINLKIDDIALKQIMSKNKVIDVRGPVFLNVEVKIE

Row | Molecule | Cm resistance (E. coli Top10ΔserB; tRNA^Sep and SepRS plus additional EF-Tu, FIG. 2 fifth bar) | protection of Sep-tRNA^Cys from deacylation ([^14C]Sep-tRNA^Cys) | protection of Cys-tRNA^Cys from deacylation ([^35S]Cys-tRNA^Cys) | increase in Cm resistance (E. coli Top10ΔserB; co-expression of tRNA^Sep and Mmp CysRS, FIG. 2 eight bar) | increase in Cm resistance (E. coli Top10ΔserB; co-expression of tRNA^Sep, SepRS and SepCysS, FIG. 2 sixth bar) | increase in Cm resistance over background (E. coli Top10ΔserB; only tRNA^Sep expressed, 2 mM Sep, FIG. 2 second bar) | Cm resistance (E. coli Top10ΔserB; simultaneous expression of tRNA^Sep and SepRS, FIG. 2 third bar) | activity of tRNA^Sep when compared to tRNA^Cys (Mmp SepRS; in vitro aminoacylation by Mmp SepRS, tRNA overexpressed in E. coli, effect of the anticodon change, FIG. 1C) | improvement of aminoacylation by SepRS through the C20U change (Mmp SepRS; tRNA^Sep derived from Mj tRNA^Cys, no effect on CysRS recognition)
1 | EF-Tu: wild type recombinant E. coli elongation factor Tu | does not improve the result | significantly deacylated irrespective of the presence of EF-Tu | protected |  |  |  |  |  | 
2 | B1 |  |  |  | 12.3 fold | 2.3 fold | about 3.3 fold | does not provide Cm resistance | about 40% | 2.5 fold

— patent publication US9580716B2, “Site-specific incorporation of phosphoserine into proteins in Escherichia coli” (Yale University, priority 2010, dated 2017)
